Source: US20170210799A1 (Janssen / Centocor, published 2017)

Experiments:
[1] = target: T1, human ROR1 (Receptor Tyrosine Kinase-Like Orphan Receptor 1) on cells (human, UniProt Q01973 30-937); assay: cell-based or functional assay
[2] = target: T1, human ROR1 (Receptor Tyrosine …); assay: MSD-CAT, HEK293 cells expressing human ROR1
[3] = target: T1, human ROR1 (Receptor Tyrosine …); assay: flow cytometry, HCC827 cells
[4] = target: T2, human ROR1 (Receptor Tyrosine Kinase-Like Orphan Receptor 1) on cells (human, UniProt Q01973 30-937); assay: detection of control ROR1+ cell lines spiked into fixed whole blood
T2 construct: whole, on cells; endogenous on SKMES-1, MDA-MB231, H358, HCC827 and MCL lines, or on HEK293 cells transfected with human ROR1 (pDR25226); the cell line is named under assay; also called cell-surface ROR1; hu ROR1

B1: RCDB13 (bispecific antibody, human IgG4 S228P, kappa, lambda, F234A L235A)
heavy 1: not shown
light 1: not shown
heavy 2: EVQLVESGGGLVQPGGSLRLSCAASGFTFNTYAMNWVRQAPGKGLEWVARIRSKYNNYATYYAASVKGRFTISRDDSKNSLYLQMNSLKTEDTAVYYCARHGNFGNSYVSWFAYWGQGTLVTVSSASTKGPSVFPLAPCSRSTSESTAALGCLVKDYFPEPVTVSWNSGALTSGVHTFPAVLQSSGLYSLSSVVTVPSSSLGTKTYTCNVDHKPSNTKVDKRVESKYGPPCPPCPAPEAAGGPSVFLFPPKPKDTLMISRTPEVTCVVVDVSQEDPEVQFNWYVDGVEVHNAKTKPREEQFNSTYRVVSVLTVLHQDWLNGKEYKCKVSNKGLPSSIEKTISKAKGQPREPQVYTLPPSQEEMTKNQVSLTCLVKGFYPSDIAVEWESNGQPENNYKTTPPVLDSDGSFLLYSKLTVDKSRWQEGNVFSCSVMHEALHNHYTQKSLSLSLGK
light 2: QTVVTQEPSLTVSPGGTVTLTCRSSTGAVTTSNYANWVQQKPGQAPRGLIGGTNKRAPGTPARFSGSLLGGKAALTLSGVQPEDEAEYYCALWYSNLWVFGGGTKLTVLGQPKAAPSVTLFPPSSEELQANKATLVCLISDFYPGAVTVAWKADSSPVKAGVETTTPSKQSNNKYAASSYLSLTPEQWKSHRSYSCQVTHEGSTVEKTVAPTECS
notes: DuoBody IgG4 PAA, ROR1 arm + CD3B219 arm; also called RR1B78 × CD3B219
Killing EC50 [1]: 0.539 nM | Kd [2]: 0.254 nM | EC50 [3]: 1.64 nM

B2: RCDB12 (bispecific antibody, human IgG4 S228P, kappa, lambda, F234A L235A)
heavy 1: not shown
light 1: not shown
heavy 2: EVQLVESGGGLVQPGGSLRLSCAASGFTFNTYAMNWVRQAPGKGLEWVARIRSKYNNYATYYAASVKGRFTISRDDSKNSLYLQMNSLKTEDTAVYYCARHGNFGNSYVSWFAYWGQGTLVTVSSASTKGPSVFPLAPCSRSTSESTAALGCLVKDYFPEPVTVSWNSGALTSGVHTFPAVLQSSGLYSLSSVVTVPSSSLGTKTYTCNVDHKPSNTKVDKRVESKYGPPCPPCPAPEAAGGPSVFLFPPKPKDTLMISRTPEVTCVVVDVSQEDPEVQFNWYVDGVEVHNAKTKPREEQFNSTYRVVSVLTVLHQDWLNGKEYKCKVSNKGLPSSIEKTISKAKGQPREPQVYTLPPSQEEMTKNQVSLTCLVKGFYPSDIAVEWESNGQPENNYKTTPPVLDSDGSFLLYSKLTVDKSRWQEGNVFSCSVMHEALHNHYTQKSLSLSLGK
light 2: QTVVTQEPSLTVSPGGTVTLTCRSSTGAVTTSNYANWVQQKPGQAPRGLIGGTNKRAPGTPARFSGSLLGGKAALTLSGVQPEDEAEYYCALWYSNLWVFGGGTKLTVLGQPKAAPSVTLFPPSSEELQANKATLVCLISDFYPGAVTVAWKADSSPVKAGVETTTPSKQSNNKYAASSYLSLTPEQWKSHRSYSCQVTHEGSTVEKTVAPTECS
notes: DuoBody IgG4 PAA, ROR1 arm + CD3B219 arm; also called RR1B77 × CD3B219
Kd [2]: 0.236 nM | EC50 [3]: 1.25 nM

B3: RCDB9 (bispecific antibody, human IgG4 S228P, kappa, lambda, F234A L235A)
heavy 1: not shown
light 1: not shown
heavy 2: EVQLVESGGGLVQPGGSLRLSCAASGFTFNTYAMNWVRQAPGKGLEWVARIRSKYNNYATYYAASVKGRFTISRDDSKNSLYLQMNSLKTEDTAVYYCARHGNFGNSYVSWFAYWGQGTLVTVSSASTKGPSVFPLAPCSRSTSESTAALGCLVKDYFPEPVTVSWNSGALTSGVHTFPAVLQSSGLYSLSSVVTVPSSSLGTKTYTCNVDHKPSNTKVDKRVESKYGPPCPPCPAPEAAGGPSVFLFPPKPKDTLMISRTPEVTCVVVDVSQEDPEVQFNWYVDGVEVHNAKTKPREEQFNSTYRVVSVLTVLHQDWLNGKEYKCKVSNKGLPSSIEKTISKAKGQPREPQVYTLPPSQEEMTKNQVSLTCLVKGFYPSDIAVEWESNGQPENNYKTTPPVLDSDGSFLLYSKLTVDKSRWQEGNVFSCSVMHEALHNHYTQKSLSLSLGK
light 2: QTVVTQEPSLTVSPGGTVTLTCRSSTGAVTTSNYANWVQQKPGQAPRGLIGGTNKRAPGTPARFSGSLLGGKAALTLSGVQPEDEAEYYCALWYSNLWVFGGGTKLTVLGQPKAAPSVTLFPPSSEELQANKATLVCLISDFYPGAVTVAWKADSSPVKAGVETTTPSKQSNNKYAASSYLSLTPEQWKSHRSYSCQVTHEGSTVEKTVAPTECS
notes: DuoBody IgG4 PAA, ROR1 arm + CD3B219 arm; also called RR1B72 × CD3B219
Killing EC50 [1]: 3.21 nM | Kd [2]: 2.27 nM | EC50 [3]: 16.9 nM

B4: RCDB17 (bispecific antibody, human IgG4 S228P, kappa, lambda, F234A L235A)
heavy 1: not shown
light 1: not shown
heavy 2: EVQLVESGGGLVQPGGSLRLSCAASGFTFNTYAMNWVRQAPGKGLEWVARIRSKYNNYATYYAASVKGRFTISRDDSKNSLYLQMNSLKTEDTAVYYCARHGNFGNSYVSWFAYWGQGTLVTVSSASTKGPSVFPLAPCSRSTSESTAALGCLVKDYFPEPVTVSWNSGALTSGVHTFPAVLQSSGLYSLSSVVTVPSSSLGTKTYTCNVDHKPSNTKVDKRVESKYGPPCPPCPAPEAAGGPSVFLFPPKPKDTLMISRTPEVTCVVVDVSQEDPEVQFNWYVDGVEVHNAKTKPREEQFNSTYRVVSVLTVLHQDWLNGKEYKCKVSNKGLPSSIEKTISKAKGQPREPQVYTLPPSQEEMTKNQVSLTCLVKGFYPSDIAVEWESNGQPENNYKTTPPVLDSDGSFLLYSKLTVDKSRWQEGNVFSCSVMHEALHNHYTQKSLSLSLGK
light 2: QTVVTQEPSLTVSPGGTVTLTCRSSTGAVTTSNYANWVQQKPGQAPRGLIGGTNKRAPGTPARFSGSLLGGKAALTLSGVQPEDEAEYYCALWYSNLWVFGGGTKLTVLGQPKAAPSVTLFPPSSEELQANKATLVCLISDFYPGAVTVAWKADSSPVKAGVETTTPSKQSNNKYAASSYLSLTPEQWKSHRSYSCQVTHEGSTVEKTVAPTECS
notes: DuoBody IgG4 PAA, ROR1 arm + CD3B219 arm; also called RR1B85 × CD3B219
Killing EC50 [1]: 5.17 nM | EC50 [3]: 4.72 nM

B5: RCDB7 (bispecific antibody, human IgG4 S228P, kappa, lambda, F234A L235A)
heavy 1: not shown
light 1: not shown
heavy 2: EVQLVESGGGLVQPGGSLRLSCAASGFTFNTYAMNWVRQAPGKGLEWVARIRSKYNNYATYYAASVKGRFTISRDDSKNSLYLQMNSLKTEDTAVYYCARHGNFGNSYVSWFAYWGQGTLVTVSSASTKGPSVFPLAPCSRSTSESTAALGCLVKDYFPEPVTVSWNSGALTSGVHTFPAVLQSSGLYSLSSVVTVPSSSLGTKTYTCNVDHKPSNTKVDKRVESKYGPPCPPCPAPEAAGGPSVFLFPPKPKDTLMISRTPEVTCVVVDVSQEDPEVQFNWYVDGVEVHNAKTKPREEQFNSTYRVVSVLTVLHQDWLNGKEYKCKVSNKGLPSSIEKTISKAKGQPREPQVYTLPPSQEEMTKNQVSLTCLVKGFYPSDIAVEWESNGQPENNYKTTPPVLDSDGSFLLYSKLTVDKSRWQEGNVFSCSVMHEALHNHYTQKSLSLSLGK
light 2: QTVVTQEPSLTVSPGGTVTLTCRSSTGAVTTSNYANWVQQKPGQAPRGLIGGTNKRAPGTPARFSGSLLGGKAALTLSGVQPEDEAEYYCALWYSNLWVFGGGTKLTVLGQPKAAPSVTLFPPSSEELQANKATLVCLISDFYPGAVTVAWKADSSPVKAGVETTTPSKQSNNKYAASSYLSLTPEQWKSHRSYSCQVTHEGSTVEKTVAPTECS
notes: DuoBody IgG4 PAA, ROR1 arm + CD3B219 arm; also called RR1B70 × CD3B219
Killing EC50 [1]: 16.9 nM | EC50 [3]: 1 nM

B6: RCDB5 (bispecific antibody, human IgG4 S228P, kappa, lambda, F234A L235A)
heavy 1: not shown
light 1: not shown
heavy 2: EVQLVESGGGLVQPGGSLRLSCAASGFTFNTYAMNWVRQAPGKGLEWVARIRSKYNNYATYYAASVKGRFTISRDDSKNSLYLQMNSLKTEDTAVYYCARHGNFGNSYVSWFAYWGQGTLVTVSSASTKGPSVFPLAPCSRSTSESTAALGCLVKDYFPEPVTVSWNSGALTSGVHTFPAVLQSSGLYSLSSVVTVPSSSLGTKTYTCNVDHKPSNTKVDKRVESKYGPPCPPCPAPEAAGGPSVFLFPPKPKDTLMISRTPEVTCVVVDVSQEDPEVQFNWYVDGVEVHNAKTKPREEQFNSTYRVVSVLTVLHQDWLNGKEYKCKVSNKGLPSSIEKTISKAKGQPREPQVYTLPPSQEEMTKNQVSLTCLVKGFYPSDIAVEWESNGQPENNYKTTPPVLDSDGSFLLYSKLTVDKSRWQEGNVFSCSVMHEALHNHYTQKSLSLSLGK
light 2: QTVVTQEPSLTVSPGGTVTLTCRSSTGAVTTSNYANWVQQKPGQAPRGLIGGTNKRAPGTPARFSGSLLGGKAALTLSGVQPEDEAEYYCALWYSNLWVFGGGTKLTVLGQPKAAPSVTLFPPSSEELQANKATLVCLISDFYPGAVTVAWKADSSPVKAGVETTTPSKQSNNKYAASSYLSLTPEQWKSHRSYSCQVTHEGSTVEKTVAPTECS
notes: DuoBody IgG4 PAA, ROR1 arm + CD3B219 arm
Killing EC50 [1]: 0.454 nM | Kd [2]: 0.331 nM | EC50 [3]: 3.74 nM

B7: RCDB11 (bispecific antibody, human IgG4 S228P, kappa, lambda, F234A L235A)
heavy 1: not shown
light 1: not shown
heavy 2: EVQLVESGGGLVQPGGSLRLSCAASGFTFNTYAMNWVRQAPGKGLEWVARIRSKYNNYATYYAASVKGRFTISRDDSKNSLYLQMNSLKTEDTAVYYCARHGNFGNSYVSWFAYWGQGTLVTVSSASTKGPSVFPLAPCSRSTSESTAALGCLVKDYFPEPVTVSWNSGALTSGVHTFPAVLQSSGLYSLSSVVTVPSSSLGTKTYTCNVDHKPSNTKVDKRVESKYGPPCPPCPAPEAAGGPSVFLFPPKPKDTLMISRTPEVTCVVVDVSQEDPEVQFNWYVDGVEVHNAKTKPREEQFNSTYRVVSVLTVLHQDWLNGKEYKCKVSNKGLPSSIEKTISKAKGQPREPQVYTLPPSQEEMTKNQVSLTCLVKGFYPSDIAVEWESNGQPENNYKTTPPVLDSDGSFLLYSKLTVDKSRWQEGNVFSCSVMHEALHNHYTQKSLSLSLGK
light 2: QTVVTQEPSLTVSPGGTVTLTCRSSTGAVTTSNYANWVQQKPGQAPRGLIGGTNKRAPGTPARFSGSLLGGKAALTLSGVQPEDEAEYYCALWYSNLWVFGGGTKLTVLGQPKAAPSVTLFPPSSEELQANKATLVCLISDFYPGAVTVAWKADSSPVKAGVETTTPSKQSNNKYAASSYLSLTPEQWKSHRSYSCQVTHEGSTVEKTVAPTECS
notes: DuoBody IgG4 PAA, ROR1 arm + CD3B219 arm; also called RR1B76 × CD3B219
Killing EC50 [1]: 0.247 nM | Kd [2]: 0.382 nM | EC50 [3]: 2.36 nM

B8: RCDB6 (bispecific antibody, human IgG4 S228P, kappa, lambda, F234A L235A)
heavy 1: not shown
light 1: not shown
heavy 2: EVQLVESGGGLVQPGGSLRLSCAASGFTFNTYAMNWVRQAPGKGLEWVARIRSKYNNYATYYAASVKGRFTISRDDSKNSLYLQMNSLKTEDTAVYYCARHGNFGNSYVSWFAYWGQGTLVTVSSASTKGPSVFPLAPCSRSTSESTAALGCLVKDYFPEPVTVSWNSGALTSGVHTFPAVLQSSGLYSLSSVVTVPSSSLGTKTYTCNVDHKPSNTKVDKRVESKYGPPCPPCPAPEAAGGPSVFLFPPKPKDTLMISRTPEVTCVVVDVSQEDPEVQFNWYVDGVEVHNAKTKPREEQFNSTYRVVSVLTVLHQDWLNGKEYKCKVSNKGLPSSIEKTISKAKGQPREPQVYTLPPSQEEMTKNQVSLTCLVKGFYPSDIAVEWESNGQPENNYKTTPPVLDSDGSFLLYSKLTVDKSRWQEGNVFSCSVMHEALHNHYTQKSLSLSLGK
light 2: QTVVTQEPSLTVSPGGTVTLTCRSSTGAVTTSNYANWVQQKPGQAPRGLIGGTNKRAPGTPARFSGSLLGGKAALTLSGVQPEDEAEYYCALWYSNLWVFGGGTKLTVLGQPKAAPSVTLFPPSSEELQANKATLVCLISDFYPGAVTVAWKADSSPVKAGVETTTPSKQSNNKYAASSYLSLTPEQWKSHRSYSCQVTHEGSTVEKTVAPTECS
notes: as for B6
Killing EC50 [1]: 0.437 nM | Kd [2]: 0.648 nM | EC50 [3]: 6.25 nM

B9: RR1B78 (antibody, human IgG4 S228P, kappa, F234A L235A, V domains shown)
VH: EVQLVQSGAEVKKPGESLKISCKGSGYSFTSYWIGWVRQMPGKGLEWMGIIYPGDSDTRYSPSFQGQVTISADKSISTAYLQWSSLKASDTAMYYCARDVGRWAPGGFLDYWGQGTLVTVSS
VL: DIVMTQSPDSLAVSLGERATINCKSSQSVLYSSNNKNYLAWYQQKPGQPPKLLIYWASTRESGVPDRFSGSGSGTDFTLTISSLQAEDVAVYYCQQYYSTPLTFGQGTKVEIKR
notes: huIgG4 PAA/kappa
binding result [4]: binds
